Assay results published in US20250136711A1 (SHANGHAI BIOTROY BIOTECHNIQUE, published 2025).
Where a chain is given by its changes, count along the chain named. Each block holds one molecule with its values, some of them ahead of it.

Assays:
SEMG2 (human) = SEMG2 (human) (UniProt Q02383); assay: ELISA; negative control
[1] = target: T1, SEMG1 recombinant protein (semenogelin-1) (human, UniProt P04279 24-462, limits assumed); assay: ELISA; SEMG1 coated, antibody in 3-fold dilution series, goat anti-mouse HRP
T1 construct: also called full-length SEMG1
T1 sequence (looked up): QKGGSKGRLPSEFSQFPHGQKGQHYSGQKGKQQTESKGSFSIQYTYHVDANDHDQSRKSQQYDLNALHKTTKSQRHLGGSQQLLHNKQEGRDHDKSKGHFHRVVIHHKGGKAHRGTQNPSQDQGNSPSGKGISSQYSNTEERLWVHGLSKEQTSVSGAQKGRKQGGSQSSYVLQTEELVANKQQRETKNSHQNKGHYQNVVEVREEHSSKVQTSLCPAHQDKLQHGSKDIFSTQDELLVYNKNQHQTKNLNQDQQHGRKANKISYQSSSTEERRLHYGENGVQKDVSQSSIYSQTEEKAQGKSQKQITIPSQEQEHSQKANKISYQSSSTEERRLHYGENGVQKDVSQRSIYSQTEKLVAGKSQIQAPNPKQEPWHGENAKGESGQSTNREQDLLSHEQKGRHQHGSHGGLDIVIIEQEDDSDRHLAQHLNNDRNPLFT
Method: (§1) In order to identify whether the screened monoclonal antibodies with neutralizing effect can bind to SEMG1 and SEMG2 proteins, we coated SEMG2 protein diluted in carbonate buffer (Solarbio, Beijing, China) to a final concentration of 1 μg/mL on a dedicated ELISA plate (costar, ME, USA), and the binding of 1 μg/mL mouse hybridoma antibody to SEMG2 was initially tested. According to the determination outcome, the binding and binding strength between SEMG1 or SEMG2 and the purified mouse monoclonal antibody were further analyzed by ELISA experiment, and an irrelevant mouse monoclonal antibody was taken as a negative control. Specifically, a special plate for ELISA (costar, ME, USA) was used. First, different concentrations of SEMG1 or SEMG2 recombinant proteins were dissolved in 100 μL of carbonate coating buffer (Solarbio, Beijing, China) to 2 μg/mL to coat the plate, and the negative control was coated with 100 μL of coating buffer without protein. The plates were coated overnight at 4° C. […] After washing with PBST, color developing solution (Sangon, Shanghai, China) was used for color development, 100 μL per well, the plate was placed in an incubator for 5-30 minutes, and adding 50 μL of stop solution (Sangon, Shanghai, China) to stop the reaction, and then the plate was placed in a microplate reader (Thermo Fisher, MA, USA) for chromogenic reading at 450 nm.

[2] = target: T2, S1-26 synthetic polypeptide of SEMG1 (human); assay: ELISA on coated peptide; antibody at 2.5 ug/mL; positive if OD ratio to blank >3
T2 construct: also called SEMG1-26
T2 peptide: KDIFSTQDELLVYNK
Method: ⅓ overlapping peptide sequences were designed, and a peptide library consisting of 45 peptides (GenScript, Nanjing) was synthesized. Peptide matrix was prepared by using a polypeptide-coated 96-well plate (Costar, Corning), and the selected monoclonal antibody was used as the primary antibody for ELISA binding test, and SEMG1 coating was set as a positive control, and BSA coating was set as a control. The ELISA procedure was performed routinely, as described in Example 2 above. For the coated polypeptide well with OD_{experimental group}/OD_{blank group}>3, it was determined as a positive reaction, which was the corresponding antibody-bound polypeptide sequence.

[3] = target: T3, SEMG2 recombinant protein (semenogelin-2) (human, UniProt Q02383 24-582, limits assumed); assay: ELISA; SEMG2 coated, antibody in 3-fold dilution series, goat anti-mouse HRP
T3 construct: also called SMEG2
T3 sequence (looked up): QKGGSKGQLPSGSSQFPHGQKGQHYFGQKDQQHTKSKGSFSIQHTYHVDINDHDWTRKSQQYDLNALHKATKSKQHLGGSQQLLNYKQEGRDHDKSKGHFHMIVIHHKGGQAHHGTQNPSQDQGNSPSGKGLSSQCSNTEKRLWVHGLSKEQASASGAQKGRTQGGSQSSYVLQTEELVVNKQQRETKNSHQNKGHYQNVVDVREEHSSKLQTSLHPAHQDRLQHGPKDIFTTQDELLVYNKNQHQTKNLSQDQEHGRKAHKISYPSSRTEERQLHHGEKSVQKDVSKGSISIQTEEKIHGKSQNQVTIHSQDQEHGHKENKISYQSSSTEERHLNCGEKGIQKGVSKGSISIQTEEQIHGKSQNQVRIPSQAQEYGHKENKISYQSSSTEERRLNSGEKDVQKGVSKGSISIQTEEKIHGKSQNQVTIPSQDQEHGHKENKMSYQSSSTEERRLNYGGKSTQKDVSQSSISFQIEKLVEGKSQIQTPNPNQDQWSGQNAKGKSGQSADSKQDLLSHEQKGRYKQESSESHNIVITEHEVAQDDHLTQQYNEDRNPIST
Method: as §1

EC50 (SEMG2 (human)): 4.24 nM
Molecule: mIgG1

EC50 [1]: 1.26 nM | binding result [2]: binds | EC50 [3]: 1.69 nM
B1: 25-E10-F8-B5 (antibody, mouse IgG1, V domains shown)
VH: QVQLQQPGAELVKPGASVKMSCKASGYTFTSYNMHWVKQTPGQGLEWIGAIYPGNGDTSYNQKFKGKATLTADKSSSTAYMQLSSLTSEDSAVYYCASAMDYWGQGTSVTVSS
VL: SIVMTQTPLSLPVSLGDQASISCRSSQSLVHSNGNTYLQWYLQKPGQSPKLLIYKVSNRFSGVPDRFSGSGSGTDFTLKISRVEAEDLGVYFCSQSKHVPRTFGGGTKLEIK
notes: Mouse hybridoma monoclonal antibody; The V regions were re-cloned with murine IgG1 and murine kappa constant regions to verify activity

EC50 [1]: 3.67 nM | binding result [2]: binds | EC50 [3]: 2.39 nM
B2: 33-B5-C1-F5 (antibody, mouse IgG1, V domains shown)
VH: B1 VH with Q1E, Q6E, P7S, G15R, T30S, V37I, K38R, G42E, N55T
VL: B1 VL with S1D, I2V, M4L, V30L, Y41F, K44R, P45S, S61Y, K97I, H98D
notes: as for B1
